US20250302947A1, “M-cell GP2-mediated lymphatic-targeted drug carriers” (Hong Kong Baptist University, priority 2022, published 2025)

Key:
[1] = Dynamic distribution of FITC-labeled polysaccharides in the gastrointestinal system and organs of mice after gavage; format: in vivo; conditions: 0 to 5 h after gavage
Protocol: FTIC-RAP (10 mg in 1 mL distilled water) was orally administrated to each mouse (n=6). After the mice were sacrificed at 0, 1, 2, 3, 4, and 5 h after oral administration, blood and major tissues, including liver, spleen, kidney, stomach, small intestine, mesenteric lymph nodes (MLN), Peyer's patches (PPs), caecum, and colon, were collected and imaged using an IVIS Lumina XR in vivo imaging system (PerkinElmer) immediately. The molecular size of FITC-RAP was monitored using high-performance gel-permeation chromatography. For Western blotting (WB), PPs from different groups were collected at other time points (0, 1, 2, 3, and 4 h after oral administration) and prepared for WB. For ELISA assay, PPs were collected 24 hours after RAP treatment, then homogenized and centrifugated at 15,000 rpm for 10 min to obtain the supernatant for cytokine production assessment using ELISA kits. Similarly, the dynamic distribution of FITC-DOP control in MLN and PPs was investigated.
(§1) The tissues collected from the above dynamic distribution analysis were homogenized using a 3-fold volume of 0.1 mol/L phosphate buffer (pH 7.4) and centrifuged at 15,000 rpm for 10 min. Especially, the PP collected from the ligated loop assay model were homogenized using 200 μL PBS and centrifuged at 15,000 rpm for 10 min. The supernatant was collected and stored at −20° C. for chromatographic analysis. The separation was achieved on a TSK GMPWXL column (164× 7.8 mm i.d., 10 μm) system operated at 40° C. using an Agilent-1100 HPLC system equipped with FLD. Ammonium acetate aqueous solution (20 mM) was used as a mobile phase at a flow rate of 0.6 mL/min. The excitation wavelength and emission wavelength of FLD were 495 and 515 nm, respectively.
The intestinal contents of BALB/C mice that had received oral doses of RAP (100 mg/kg/mice) were collected at 0, 1, 2, 3, 4, 5 h after oral administration (n=6 each group) for carbohydrates detection by the phenol-sulfuric acid method. […] The plate was then cooled to RT and wiped dry to detect at A490 nm by a microplate reader. […]

[2] = system: GP2+M cell (M-like cells); experiment: In vitro M-cell-like model (Caco-2 / Raji B co-culture on transwell inserts); format: cell-based, human; conditions: confocal microscopy
Protocol: Caco-2 cells were grown in flasks in 10% (v/v) fetal calf serum DMEM at 37° C. under a 10% CO2 water-saturated atmosphere. Caco-2 cells were grown on Transwell polyester inserts (0.3 μm pore size, 12 mm diameter, Corning Costar) coated with 100 μg/mL matrigel basement membrane matrix phenol red-free (Becton Dickinson), prepared in pure cold DMEM without phenol red. Raji B cells (5× 10^5) were resuspended in DMEM and added to the basolateral chamber of 7-day-old Caco-2 cell monolayers. The co-cultures were maintained for 5 days. Mono-culture of Caco-2 cells, cultivated as above but without the Raji B cells, were used as control. […] The transportation function of this in vitro M cell model was first validated using nanoparticle. FITC-RAP (2 mg/mL) in 400 μl DMEM were added to the upper layers of mono-culture and co-culture inserts and then incubated for 2 h at 37° C. under 5% CO2. All inserts were removed, and lower solutions were collected for chromatographic analysis. The lower solution collected from the co-culture group treated with unlabeled RAP was further used to treat RAW264.7 cells in a 96-well plate for 24 h, and the supernatants were sampled for IL-6 and IL-12 detection using ELISA kits.
Three co-culture and mono-cultures inserts were used to detect the presence of M-like cells by immunofluorescence. […]

[3] = system: F4/80+ macrophages / CD34+ cells in the bone marrow; conditions: mouse, in vivo, po
GP2+M cells of PPs = experiment: Ligated intestinal loop assay with FITC-RAP; format: in vivo, C57BL/6 mice
Protocol: as §1
C57BL/6 wild-type (WT) mice, and GP2^−/− C57BL/6 mice were anesthetized using isoflurane. To prepare ligated intestinal loops, incision was made near the linea alba of the abdomen to expose the small intestine. FITC-RAP (10 mg/mL) in 100 μl PBS was injected into the ligated intestinal loop. The mice were kept under anesthesia for 1 h after the injection. PPs were excised and rinsed with PBS 5 times. The cleaned PPs were photographed using an IVIS Lumina XR and then processed for HPGPC-FLD analysis, whole-mount staining, sectioning, and further microscopic analysis.
Frozen sections of PPs from the ligated loop assay were washed three times with PBS and blocked with 5% normal goat serum in PBS for 1 h. Sections were incubated with anti-mouse GP2, anti-mouse NKM 16-2-4 antibody, or anti-mouse CD11c antibody overnight at 4° C. PPs sections were washed three times with PBS and then treated with Alexa Fluor647 secondary goat anti-rabbit, […] anti-rat antibodies for 1 h at RT, followed by three consecutive PBS washes. The cell nuclei were stained with 1 μg/mL 4′,6-diamidino-2-phenylindole (DAPI) for 15 min. Sections were washed three times with PBS and mounted with an anti-fade mounting medium. Images were captured with a Leica TCS SP8 confocal laser scanning microscope.
For whole-mount staining, mouse PPs were isolated from the small intestine and washed 3 times with 1×ice-cold PBS. The PPs were fixed in 4% paraformaldehyde overnight at 4° C. and then permeabilized with 0.1% Triton X-100 for 30 min. PPs were blocked with 5% normal goat serum in PBS for 1 h. A primary rat anti-mouse glycoprotein 2 (GP2) and 1 μg/ml DAPI in PBS were used to incubate PPs for 1 h at RT, followed by rinsing 3×5 mins with PBS. The second goat anti-rat IgG antibody conjugated with Alexa647 was further stained for 1 h at RT. PPs were washed 3×5 mins with PBS and mounted with the anti-fade reagent. Images were analyzed and captured by a confocal laser microscope (SP8, Leica Microsystems).
For the detection of RAP-induced immune responses, tumor tissues and PPs were minced into small pieces and grounded with a syringe plug. For the isolation and identification of M cell, PPs and small intestine segments collected from FITC-RAP-treated mice were incubated in PBS with 0.5 mM EDTA and stirred at 37° C. for 20 min. For the isolation and detection of dendritic cells, PPs collected from WT mice and GP2--mice were ground with a syringe plug. Tissues and cells were collected and rinsed with ice-cold PBS at 400 g for 5 min, followed by filtering through a 70 μm filter. Single cell suspensions were prepared for antibody staining. Cells were incubated with antibodies or the matching isotypes for 25 min at RT. The stained cells were rinsed twice and re-suspended in PBS and analyzed by FACSAria III (BD Biosciences). Data analysis was performed with FlowJo V10 software.

human GP2+M cells = experiment: Ligated loop assay on human distal ileum explants with PPs
Protocol: Twenty volunteers who needed surgery were enrolled in this study. The age of the participants ranged from 20 to 50 years. All distal ilea of the small intestine were collected after their surgeries. Twenty samples of the small intestine with PP were used in this study. In brief, the small intestines with PPs were stored in ice-cold PBS with 5% FBS after surgery. The small intestine segment was ligated with a surgical suture for the ligated loop assay. It then was injected with 10 ml FITC-RAP solution (5 mg/ml) followed by incubation at 37° C. under 5% CO2 for 2 h. PPs were collected for whole-mount staining, preparation of frozen sections, and immunofluorescence staining.

[4] = system: F4/80+ macrophages / CD34+ cells in the bone marrow; conditions: mouse, in vivo; cited from earlier work
[5] = C57BL/6 wild-type mice, 1 hr after injection

## FITC-RAP: RAP labeled with fluorescein isothiocyanate isomer I (FITC)
[1]
  fluorescence in the liver, kidney, spleen, mesenteric lymph nodes (MLN), and circulation: no detectable increase
[1]; 100 mg/kg
  integrity in the caecum and colon (gel permeation chromatography): immediately degraded
  integrity in the small intestine (gel permeation chromatography): remained intact in the small intestine for several hours
[2]
  internalization by GP2+M cell in co-culture inserts: internalized by GP2+M cell
[3]
  binding to F4/80+ macrophages in the bone marrow: could also bind
GP2+M cells of PPs; [5]
  integrity in PPs (HPGPC-FLD): undegraded form
  localization in gut loop (whole animal imaging): concentrated in regions associated with PPs
GP2+M cells of PPs; GP2-/- mice, IVIS imaging, HPGPC-FLD
  positive signals of FITC-RAP in PPs, GP2-/- versus WT mice: significantly decreased
GP2+M cells of PPs; wild-type mice
  internalization into M cells (whole-mount confocal images): internalized into M cells
  uptake by GP2+M cells versus other intestinal epithelial cells (flow cytometry): GP2+M cells instead of other intestinal epithelial cells accumulated FITC-RAP
GP2+M cells of PPs; wild-type mice, confocal microscopy
  co-localization with GP2 receptors on the M cell apical surface (frozen sections): precisely co-localized
Human GP2+M cells; human PP domes, whole-mount staining
  co-localization of FITC-RAP puncta with GP2: most of which were positive for GP2
Human GP2+M cells; human distal ileum explants, 5 mg/ml, 2 h
  transport into human PPs by M cells: could be transported into PPs
[4]
  binding to CD34+ cells in the bone marrow: binding with CD34+ cells in the bone marrow
